This passage reports AC-SINS (wavelength of maximum absorbance relative to blank, nm) results from patent US20250163168.

The nature of the data set: AC-SINS self-interaction assay; the antibody against itself (N = 2).

“positive control (polyreactivity assays)” displayed an AC-SINS (wavelength of maximum absorbance relative to blank, nm) of 23.5 nm.
Under “negative control (polyreactivity assays)” stands 0 nm.
